US20250382371A1 (NATIONAL INSTITUTES OF BIOMEDICAL INNOVATION HEALTH AND …, published 2025)

Legend:
[1] = target: T1, cynomolgus monkey FCRL1 (XP_015310712), transiently expressed on 293T cells (cynomolgus monkey); test: flow cytometry on 293T cells transiently expressing cynomolgus monkey FCRL1
T1 chain: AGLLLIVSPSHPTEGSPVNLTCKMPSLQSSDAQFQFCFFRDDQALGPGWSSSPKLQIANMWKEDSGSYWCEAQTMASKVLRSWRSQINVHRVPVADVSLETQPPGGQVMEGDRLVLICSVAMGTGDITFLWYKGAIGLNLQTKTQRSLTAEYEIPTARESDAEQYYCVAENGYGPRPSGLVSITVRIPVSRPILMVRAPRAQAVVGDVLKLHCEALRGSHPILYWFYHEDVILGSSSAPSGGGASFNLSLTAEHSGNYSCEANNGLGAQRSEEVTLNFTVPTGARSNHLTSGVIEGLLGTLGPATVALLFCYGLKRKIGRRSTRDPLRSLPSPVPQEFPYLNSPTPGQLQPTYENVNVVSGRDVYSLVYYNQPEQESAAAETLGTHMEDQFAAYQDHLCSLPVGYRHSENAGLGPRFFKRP
Procedure: An antigen-specific reactivity of the novel anti-human FCRL1 mouse antibody obtained in Example 4 was evaluated by Flow Cytometry (FCM). FCRL1 antigen-expressing cells were prepared by transiently expressing the recombinant FCRL1 antigen on 293T cells. A codon-optimized cDNA was synthesized based on the amino acid sequence of human FCRL1 (NCBI accession number: NP_443170.1) or cynomolgus monkey FCRL1 (XP_015310712), and a fragment in which the sequence of an internal ribosome entry site (IRES) derived from the encephalomyocarditis virus (EMCV) and the sequence of TagBFP were arranged in tandem was cloned into pcDNA 3.1hygro to construct an expression plasmid vector for human FCRL1 or cynomolgus monkey FCRL1. […]
(§1) Cells that transiently expressed human FCRL1 or cynomolgus monkey FCRL1 were reacted with a 3-fold dilution series of each antibody starting from 100 nM (15 μg/ml) at 12 points. Data obtained by the FCM was analyzed, and a binding amount of each antibody bound to the cell was calculated as a fluorescence amount MFI derived from the PE-labeled secondary antibody. An antibody concentration and the measured MFI were plotted with respect to a logarithm of the antibody concentration, a saturated binding curve of each antibody was obtained, and regression was performed by a 4-parameter logistic model.

[2] = target: T2, human FCRL1 (NCBI accession number: NP_443170.1), transiently expressed on 293T cells (human, UniProt Q96LA6 17-429); test: flow cytometry on 293T cells transiently expressing human FCRL1; apparent KD from EC50 of a 4-parameter fit
T2 construct: also called Fc receptor-like protein 1; CD307a
T2 sequence: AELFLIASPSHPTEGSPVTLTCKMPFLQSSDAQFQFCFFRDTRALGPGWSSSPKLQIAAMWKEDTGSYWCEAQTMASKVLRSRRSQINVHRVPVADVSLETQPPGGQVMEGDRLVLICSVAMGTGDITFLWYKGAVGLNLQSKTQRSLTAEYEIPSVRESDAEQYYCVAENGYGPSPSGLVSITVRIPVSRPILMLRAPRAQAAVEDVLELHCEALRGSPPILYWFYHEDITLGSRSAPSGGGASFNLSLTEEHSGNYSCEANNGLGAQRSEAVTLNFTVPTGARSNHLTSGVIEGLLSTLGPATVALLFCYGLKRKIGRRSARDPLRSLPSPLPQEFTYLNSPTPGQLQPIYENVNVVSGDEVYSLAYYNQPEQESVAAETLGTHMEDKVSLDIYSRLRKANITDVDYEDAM
Procedure: An antigen-specific reactivity of the novel anti-human FCRL1 mouse antibody obtained in Example 4 was evaluated by Flow Cytometry (FCM). FCRL1 antigen-expressing cells were prepared by transiently expressing the recombinant FCRL1 antigen on 293T cells. A codon-optimized cDNA was synthesized based on the amino acid sequence of human FCRL1 (NCBI accession number: NP_443170.1) or cynomolgus monkey FCRL1 (XP_015310712), and a fragment in which the sequence of an internal ribosome entry site (IRES) derived from the encephalomyocarditis virus (EMCV) and the sequence of TagBFP were arranged in tandem was cloned into pcDNA 3.1hygro to construct an expression plasmid vector for human FCRL1 or cynomolgus monkey FCRL1. The purified expression vector was transfected into 293T cells, cells were collected 2 days after transfection, and binding with each antibody was confirmed by FCM.
As the secondary antibody, when the sample is a mouse antibody, R-Phycoerythrin (PE) F(ab′)₂ Fragment Goat Anti-Mouse IgG (H+L) (Jackson ImmunoResearch) was used, and when the sample is a human antibody or a human chimeric antibody, R-Phycoerythrin (PE) F(ab′)₂ Fragment Goat Anti-Human IgG, Fcγ Fragment Specific (Jackson ImmunoResearch) was used. A solution of each secondary antibody was prepared by diluting the stock solution 200 times with an FCM buffer. After washing once, cells in each well were suspended with 100 μL of FCM buffer, and binding to each antibody was confirmed by flow cytometry (FCM).
as §1

B1: anti-human FCRL1 mouse monoclonal antibody DK610 (antibody, V domains shown)
VH: DVLLQESGPGLVKPSQSLSLTCSVAGYSITSDYAWNWLRRFPGNRLEWMGYITYSGSTAYHPSLKGRISFTRDTSQNQVFLQLHSVTTEDSATYYCAQGGTLITTWFLRWGQGTLVTVSA
VL: DIVLTQSPASLAVSLGQRATISCRASKSVSTSDYNYMHWYRQKPGQPPKLFIYLASNLESGVPARFSGSGSGTDFTLNIHPVEEEDAATYYCQQSRELPSTFGGGTKLEIK
Question: Does B1 bind [1]?
Answer: no binding

Question: And the Kd [2]?
Answer: 0.4 nM
